{"source": "patent US20220220199A1", "molecular_target": "LAG-3 expressed at the surface of Jurkat LAG-3+/NFAT-luc2 effector cells (Promega) (UniProt P18627)", "sequence (P18627 23-525 limits assumed)": "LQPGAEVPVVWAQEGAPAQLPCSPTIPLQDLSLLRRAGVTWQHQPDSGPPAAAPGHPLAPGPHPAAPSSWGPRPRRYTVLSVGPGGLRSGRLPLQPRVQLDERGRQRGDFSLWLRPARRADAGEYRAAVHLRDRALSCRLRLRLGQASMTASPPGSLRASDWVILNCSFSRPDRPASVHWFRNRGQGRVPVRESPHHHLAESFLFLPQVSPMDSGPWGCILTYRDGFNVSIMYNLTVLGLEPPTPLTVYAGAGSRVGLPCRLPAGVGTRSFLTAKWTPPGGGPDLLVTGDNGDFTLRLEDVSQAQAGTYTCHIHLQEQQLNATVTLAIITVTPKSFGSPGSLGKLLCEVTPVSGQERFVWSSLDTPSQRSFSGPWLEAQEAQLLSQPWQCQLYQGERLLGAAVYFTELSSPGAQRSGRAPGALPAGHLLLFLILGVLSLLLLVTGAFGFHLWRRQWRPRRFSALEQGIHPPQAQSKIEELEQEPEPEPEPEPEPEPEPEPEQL", "experiment": "cell-based or functional assay", "data": [{"substance": "IMP761 (humanized 13E2-human IgG4 Fc antibody)", "values": [{"measurement": "inhibition of luciferase expression (RLU) under an NFAT response element in Jurkat LAG-3+/NFAT-luc2 effector cells stimulated with anti-CD3 (OKT3, 3 ng/ml)", "result": 37, "unit": "ng/mL"}]}]}
